From doi:10.1101/2022.07.26.501514, “Structural plasticity of Atg18 oligomers: organization of assembled tubes and scaffolds at the isolation membrane” (bioRxiv, 2022)

Molecular target: the molecule itself
Test: cryo-EM structure; helical tubes of Atg18, 20 uM in tube buffer (20 mM HEPES, 100 mM KAc, 1 mM DTT, pH 7.2); segmented helical reconstruction, rise 19.4 A, rotation 70.0 degrees

B1: Atg18-PR72AA (Atg2 binding mutant) (natural protein, Saccharomyces cerevisiae, UniProt P43601 1-500, looked up)
chain: MSDSSPTINFINFNQTGTCISLGTSKGFKIFNCEPFGKFYSEDSGGYAIVEMLFSTSLLALVGIGDQPALSAARLRIINTKKHSIICEVTFPTSILSVKMNKSRLVVLLQEQIYIYDINTMRLLHTIETNPNPRGLMAMSPSVANSYLVYPSPPKVINSEIKAHATTNNITLSVGGNTETSFKRDQQDAGHSDISDLDQYSSFTKRDDADPTSSNGGNSSIIKNGDVIVFNLETLQPTMVIEAHKGEIAAMAISFDGTLMATASDKGTIIRVFDIETGDKIYQFRRGTYATRIYSISFSEDSQYLAVTGSSKTVHIFKLGHSMSNNKLDSDDSNMEEAAADDSSLDTTSIDALSDEENPTRLAREPYVDASRKTMGRMIRYSSQKLSRRAARTLGQIFPIKVTSLLESSRHFASLKLPVETNSHVMTISSIGSPIDIDTSEYPELFETGNSASTESYHEPVMKMVPIRVVSSDGYLYNFVMDPERGGDCLILSQYSILMD
notes: Atg18, Saccharomyces cerevisiae, Uniprot ID P43601, with P72 and R73 changed to alanines; also called Atg18-P72R73; Atg18-PR72R73; source: E. coli BL21(DE3), purified (Ni-NTA, TEV cleavage, second Ni-NTA, gel filtration Superdex 200); not shown: 6xHis, N-terminal, cleaved
B1: binds.
